T1: HTLV-1 envelope protein gp62 extracellular region (gp46), expressed in 293T cells together with GLUT1 (HTLV-1, UniProt P03381 21-312)
T1 construct: also called HTLV-1-expressing cells; gp62-expressing cells
T1 sequence: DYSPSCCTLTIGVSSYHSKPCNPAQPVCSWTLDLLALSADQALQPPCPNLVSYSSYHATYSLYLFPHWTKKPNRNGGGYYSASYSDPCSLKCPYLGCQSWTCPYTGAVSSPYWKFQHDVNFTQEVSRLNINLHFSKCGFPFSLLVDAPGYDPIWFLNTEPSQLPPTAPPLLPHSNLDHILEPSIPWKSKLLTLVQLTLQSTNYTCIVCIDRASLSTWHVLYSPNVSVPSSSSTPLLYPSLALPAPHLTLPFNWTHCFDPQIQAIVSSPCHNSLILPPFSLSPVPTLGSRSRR

T2: gp46 partial peptide 188-199 with P192 replaced by Ala (HTLV-1)
T2 peptide: PPLLAHSNLDHI

T3: gp46 partial peptide 188-199 with N195 replaced by Ala (HTLV-1)
T3 peptide: PPLLPHSALDHI

T4: gp46 partial peptide 188-199 with H193 replaced by Ala (HTLV-1)
T4 peptide: PPLLPASNLDHI

T5: gp46 partial peptide 188-199 with L191 replaced by Ala (HTLV-1)
T5 peptide: PPLAPHSNLDHI

T6: gp46 partial peptide 188-199 with S194 replaced by Ala (HTLV-1)
T6 peptide: PPLLPHANLDHI

T7: gp46 partial peptide 188-199 with L196 replaced by Ala (HTLV-1)
T7 peptide: PPLLPHSNADHI

T8: HTLV-1 gp46 peptide 180-204 (HTLV-1)
T8 construct: also called HTLV-1 gp46 peptide 180 to 204; gp46 antigen peptide
T8 peptide: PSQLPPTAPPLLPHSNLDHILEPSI

B1: rat anti-HTLV-1 monoclonal antibody rMAb98 (antibody, V domains shown)
VH: EVQLVESGGGLVQPGWSMKLSCAASGFTFSGSPMGWVRQAPTKGLEWVATISPTGATTYYRDSVKGRFTISRDNAKATLYLQMNSLRSEDTATYYCTREGYGYSSFDYWGQGVMVTVSS
VL: DIVMTQSPSSLAVSAGETVTINCKSSQSLLFSGYQKNYLAWYQQKPGQSPRLLIYWASTRQSGVPDRFIGSGSGTDFTLTVSSVQAEDVATYYCQQYFDTPLTFGSGTKLEIKR
B2: humanized anti-HTLV-1 antibody hMAb1_H1L12 (antibody, human IgG1, kappa, V domains shown)
VH: EVQLVESGGGLVQPGGSLRLSCAASGFTFGGFPMAWVRQAPGKGLEWVSTISPGAVNTYYADSVKGRFTISRDNSKNTLYLQMNSLRAEDTAVYYCAREGYGFSSFEYWGQGTLVTVSS
VL: DIQMTQSPSSLSASVGDRVTITCKSSQTLLYSGNQKNYLAWYQQKPGKAPKLLISWASTRQSGVPSRFSGSGSGTDFTLTISSLQPEDFATYYCQQYFATPITFGQGTKVEIKR
notes: Human IgG1, kappa
B3: rat anti-HTLV-1 monoclonal antibody rMAb1 (antibody, V domains shown)
VH: EIQLVESGGGLVQPGRSMKLSCEALGFTFGGFPMAWVRQAPTKGLEWVATISPGAVNTYYGDSVKGRFTISRDNAKSTLYLQMNSLRSEDTATYYCVREGYGFSSFEYWGQGVTVTVSP
VL: DIVMTQSPSSLAVSAGETVTIKCKSSQTLLYSGNQKNYLAWYQQKPGQSPKLLICWASTRQSSVPDRFIGSGSGTDFTLTISSVQAEDLAIYYCQQYFATPITFGSGTKLEIKR

Key:
[1] = biological target: T1, HTLV-1 envelope protein gp62 …; assay: flow cytometry on 293T cells transfected with HTLV-1 and GLUT1 vectors against pcDNA3.1 control cells
[2] = biological target: T2, gp46 partial peptide 188-199 with P192 …; assay: ELISA on Ala-substituted gp46 188-199 peptides
[3] = biological target: T3, gp46 partial peptide 188-199 with N195 …; assay: ELISA on Ala-substituted gp46 188-199 peptides
[4] = biological target: T4, gp46 partial peptide 188-199 with H193 …; assay: ELISA on Ala-substituted gp46 188-199 peptides
[5] = biological target: T5, gp46 partial peptide 188-199 with L191 …; assay: ELISA on Ala-substituted gp46 188-199 peptides
[6] = biological target: T6, gp46 partial peptide 188-199 with S194 …; assay: ELISA on Ala-substituted gp46 188-199 peptides
[7] = biological target: T7, gp46 partial peptide 188-199 with L196 …; assay: ELISA on Ala-substituted gp46 188-199 peptides
[8] = biological target: T8, HTLV-1 gp46 peptide 180-204; assay: SPR, Biacore T200, antibody amine-coupled on CM5 chip, peptide as analyte, affinity (steady-state) analysis

Row | Binder | binding result [1] | binding result [2] | binding result [3] | binding result [4] | binding result [5] | binding result [6] | binding result [7] | Kd [8]
1 | B1 | binds | – | – | – | – | – | – | –
2 | B2 | – | binds | binds | binds | binds | binds | binds | –
3 | B3 | binds | binds | binds | binds | binds | binds | binds | 3.49 nM
